System: K4 kissing-loop RNA reporter
Assay: apparent KD of K4 kissing-loop reporter; higher = weaker reporter binding
Settings: Eterna round: R107
Experimental: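 RNA-MaP round R107: designed RNA switches with theophylline, tryptophan, arginine or FMN aptamers are transcribed on-chip within common flanks. They are titrated with a labelled K4 kissing-loop RNA reporter in RNA-MaP buffer (100 mM Tris pH 7.5, 80 mM KCl, 4 mM MgCl2), without ligand or with the indicated ligand. Median apparent KD per design.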

[1] = input ligand: theophylline 20 uM
[2] = input ligand: tryptophan 2.4 mM
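Note: bound reporter read as fluorescence of individual clusters on recovered sequencing chips by microscopy, with normalized cluster intensities fitted with a binding model.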

Sequence | apparent KD of K4 kissing-loop reporter (input ligand: FMN 200 uM) [nM] | apparent KD of K4 kissing-loop reporter (input ligand: arginine 13.2 mM) [nM] | apparent KD of K4 kissing-loop reporter (input ligand: none) [nM] | apparent KD of K4 kissing-loop reporter [1] [nM] | apparent KD of K4 kissing-loop reporter [2] [nM]
UCCUGCAAUCAACCACGAAAGUGGUUCGAUACCAGAGUCGAAAGACUCCCUUGGCAGCGAGUGAUGUUCGAGCAGGUAAAAUAAA | 862 | 642 | 754 | 646 | 602
UGAUACCAGACUGAUACCAGCGAGUGAUGUUUGUUGAUCAUAAGCAGUCAAAGACUGCUUUGCCCUUGGCAGCAGUCUGGUAUCU [#11 K4 Theophylline B Exclusion] | 871 | 565 | 838 | 334 | 600
UGAUUGGCGAAAGUAGUGAUGUUACGAAUAUAGGAUAUUAGAGGAAUAAGAAGGAUAAAGGAGAAAUAGGUAAAUUGUUGGUUGG [whbob_SS_FMNA__2th169] | 110 | 59.8 | 104 | 128 | 93.4
AAGUUGAACUGAAGGAGCGAGAAAUAGAAUGUAAGAAUAUAUGCUAGUGAUGUUAGAAAUUCUCAGGUAGGUCGCAGUAAGAAUU [V1] | 368 | 357 | 442 | 510 | 317
CUUGGCAUGCGCGAUACCAGCGAACAUAGCAAGCUACGGGUAGUGAUGUUAUCUGAAUAACGCCCUUGGCAGCGCACAUGCCGGC [clock] | 872 | 418 | 593 | 679 | 712
CUCGAGUGAUGUUCGAUUAUUUAUACAGAUACCAGUGAAUUUUAACACCCUUGGCAGCUGGUUGUAUCAUUUUUUUUUACUAAAG [JR_ExcTheophyA_Sub008] | 140 | 166 | 179 | 225 | 133
UGCUUUAGAAUACAAGGUAUUUACACUGAUACCAGUCAGUUAAAUGACCCUUGGCAGCAGUGUCAGUGAUGUUGACACAACACAU [Theo A Ex t4] | 183 | 173 | 180 | 157 | 164
AGAGUCAGACAAAAGUCUGGCUCAGCCGAAGGAGCGUCCGAAAGGACAGGUAGGUCGCGGUUGCAUGAGUGAUGUUGAUGUUUUU [KL-SSArg-A23] | 546 | 372 | 425 | 559 | 500
AGACUACCACACUGUCAAUAGACAGUGAGCUAGGAUAUGCUGAUAAGCAGAAGGAGUGAUGUUCCUCGGUAGUCAAUAAAAUAAU [FmnAX 13 G29+C67] | 373 | 357 | 364 | 503 | 378
UGCGCUAUGUCCUAAAACGUCCUCCGGGAUACCAGUGUCUUUUUAUACCCUUGGCAGCUUGAGUGAUGUUUGAUGCCGUUCUUGU [izzxmullin] | 432 | 225 | 310 | 386 | 304
UGUCAUUGGUCGGCCGCCACUUCAUAAAAGAGUGAUGUUCUAAAGACGGAUCGAAAGAUCUGUCGAAGGACCGGGACCGAUGACU [TrypBS 19 #SwitchBubble #StaticStem] | 508 | 168 | 209 | 419 | 753
CACCAUGAAUUCUCUAGGAGUGAUGUUUUUCGAGGACCGGUACGGCCGCCACUCGGACGAGGACCGUGGGAGCGGCGAAAAGACU [ghgmullin] | 206 | 225 | 329 | 152 | 309
UUAGUCUAGAGAGGAUAUCAGUGAUGUUGAUAUCAAGAUCUAAGAUAGAAUUCUAUCUUAGAUCAAUGAGAAGGCUCUAGACAUU [AK1.1 Exc FMN B] | 993 | 144 | 151 | 128 | 147
GUUAUUCUAAACGCAGUAGUGAUGUUGAUGCGAGGACCGGUACGGCCGCCACUCGACUGCCGUCACGCCCGUCCAACAGCCGGAG [theeternabot_exclusion_KL_Trp_A_20] | 431 | 142 | 478 | 254 | 268
ACGGGUCGACGAAGGAGCGCCGUGCAGUGAUGUUGCAGUUAGAUCCAGUGAUGUUUGGGCCGGCAGGUAGGUCGCGUCGACUCAU [Exclusion Arginine B GF 21] | 344 | 225 | 278 | 291 | 243
CCCGUUGCGGCGGCCGCCACUGACUUAUUGAUUAGGUUGCCAGUGAUGUUGGCCACCGGUCAAUACAGGACCGGGCCAUAGCGGG [Ceisreatte] | 157 | 124 | 128 | 134 | 99.1
UCUGAAUUAUCUGAUACCAGACUUUUUGUAUUUAUUAAAACUAGUGAUGUUAGUUUAUCUGUCCCUUGGCAGCAGUUUCUACAGA [JR_Nu_ExcTheophyB_Sub022] | 79.9 | 95.4 | 83.8 | 90.8 | 72.5
ACGUCACGUAUACUCGUGGUUUCGAUCGAUACCAGUAGCGAGAGUUACCCUUGGCAGCGACAUGAGUGAUGUUCAUGUGCGAAGA [KL-XTheo-A3 #analogue] | 118 | 106 | 112 | 104 | 111
GGGUCAGCGCGAAGGAGCGCCCUGACAGGUUGCUGCCGUGGGCAGUGAUGUUGCUCAGUCCGGCAGGUAGGUCGCGUGCUGACCC | 202 | 151 | 183 | 166 | 169

Source: the supplement of paper PMC9170038
